Measurements reported in US20250320268A1 (SHATTUCK LABS, published 2025).
Several values for one entry are separate records, joined by “and”; a condition that tells them apart may be missing. Equal entries are not always repeated. One block for each molecule: values may come before it.

Key:
[1] = target: recombinant human FcγR1A, histidine-tagged (human) (UniProt P12314); experiment: SPR (ProteOn XPR36); His-tagged FcγR1A immobilized, binder as analyte
[2] = target: recombinant hCD47-Fc (human) (UniProt Q08722); experiment: SIRPα blocking ELISA: plate-bound hCD47, labelled competitor recombinant hSIRPα
recombinant hCD47-Fc (human), sequence (Q08722 19-139 limits assumed): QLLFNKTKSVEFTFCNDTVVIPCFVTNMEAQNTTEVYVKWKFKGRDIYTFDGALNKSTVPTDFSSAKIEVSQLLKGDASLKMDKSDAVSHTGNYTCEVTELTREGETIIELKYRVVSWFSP

recombinant mouse CD47 = target: T1, recombinant mouse CD47 (mouse, UniProt Q61735 19-140, limits assumed); experiment: dual ELISA: coat mCD47-Fc, detect mCD40-His, tertiary anti-his-HRP
T1 construct: also called mCD47-Fc
T1 sequence (looked up): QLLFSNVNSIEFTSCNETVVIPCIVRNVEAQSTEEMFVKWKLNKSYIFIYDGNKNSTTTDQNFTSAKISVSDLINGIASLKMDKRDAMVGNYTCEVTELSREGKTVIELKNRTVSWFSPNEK
Experimental: Plates were washed with TBS-T (Tris-buffered saline containing 0.1% Tween 20) and then detection antibody was added for 1 hour at room temperature in the dark. Detection antibodies included anti-hIgG-HRP, anti-mIgG-HRP, anti-hCD40L, anti-mCD40L, and then anti-Goat-HRP (all antibodies were obtained from Jackson ImmunoResearch Laboratories or R&D Systems). Plates were washed again and SureBlue TMB Microwell Peroxidase Substrate (KPL; purchased from VWR, catalog no. 95059-282) was added to each well and allowed to incubate at room temperature in the dark. To stop the reaction, 1N sulfuric acid was added to each well and absorbance at 450 nm was read immediately on a BioTek plate reader. Samples were run at a minimum in triplicate and at multiple dilutions.

[3] = target: T2, recombinant human CD40, histidine-tagged (human, UniProt P25942 21-193); experiment: SPR (ProteOn XPR36); His-tagged CD40 immobilized, binder as analyte
T2 construct: Immobilized ligand in SPR and coating reagent in the single-sided ELISA; also called CD40 (AcroBiosystems); hCD40-His; not shown: histidine tag
T2 sequence (P25942 21-193 limits assumed): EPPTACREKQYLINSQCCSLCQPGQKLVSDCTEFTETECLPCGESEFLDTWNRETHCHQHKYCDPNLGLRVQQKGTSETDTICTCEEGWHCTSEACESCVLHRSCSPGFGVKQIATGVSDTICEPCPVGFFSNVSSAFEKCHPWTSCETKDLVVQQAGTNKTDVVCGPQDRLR

recombinant human FcγR1A, histidine-tagged (human), sequence (P12314 16-288): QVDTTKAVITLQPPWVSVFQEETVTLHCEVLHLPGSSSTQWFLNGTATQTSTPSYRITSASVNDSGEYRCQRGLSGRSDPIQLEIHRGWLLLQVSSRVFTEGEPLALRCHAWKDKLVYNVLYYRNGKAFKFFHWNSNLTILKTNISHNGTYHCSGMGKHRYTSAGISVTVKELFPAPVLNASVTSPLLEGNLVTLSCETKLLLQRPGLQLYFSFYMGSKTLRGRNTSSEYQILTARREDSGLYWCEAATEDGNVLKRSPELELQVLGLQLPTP

B1: murine SIRPα-Fc-CD40L chimeric protein surrogate (Fc fusion)
chain: KELKVTQPEKSVSVAAGDSTVLNCTLTSLLPVGPIRWYRGVGPSRLLIYSFAGEYVPRIRNVSDTTKRNNMDFSIRISNVTPADAGIYYCVKFQKGSSEPDTEIQSGGGTEVYVLAKPSPPEVSGPADRGIPDQKVNFTCKSHGFSPRNITLKWFKDGQELHPLETTVNPSGKNVSYNISSTVRVVLNSMDVNSKVICEVAHITLDRSPLRGIANLSNFIRVSPTVKVTQQSPTSMNQVNLTCRAERFYPEDLQLIWLENGNVSRNDTPKNLTKNTDGTYNYTSLFLVNSSAHREDVVFTCQVKHDQQPAITRNHTVLGFAHSSDQGSMQTFPDNNATHNWNVPRDCGCKPCICTVPEVSSVFIFPPKPKDVLTITLTPKVTCVVVDISKDDPEVQFSWFVDDVEVHTAQTQPREEQFNSTFRSVSELPIMHQDWLNGKEFKCRVNSAAFPAPIEKTISKTKGRPKAPQVYTIPPPKEQMAKDKVSLTCMITDFFPEDITVEWQWNGQPAENYKNTQPIMNTNGSYFVYSKLNVQKSNWEAGNTFTCSVLHEGLHNHHTEKSLSHSPGKHRRLDKVEEEVNLHEDFVFIKKLKRCNKGEGSLSLLNCEEMRRQFEDLVKDITLNKEEKKENSFEMQRGDEDPQIAAHVVSEANSNAASVLQWAKKGYYTMKSNLVMLENGKQLTVKREGLYYVYTQVTFCSNREPSSQRPFIVGLWLKPSSGSERILLKAANTHSSSQLCEQQSVHLGGVFELQAGASVFVNVTEASQVIHRVGFSSFGLLKL
notes: also called mSIRPα-Fc-CD40L; mouse SIRPα-Fc-CD40L
EC50 (recombinant mouse CD47): 7.37 nM and 8.73 nM

B2: recombinant hCD40L-Fc (positive control analyte) (Fc fusion, human, UniProt P29965 116-261, looked up)
chain: GDQNPQIAAHVISEASSKTTSVLQWAEKGYYTMSNNLVTLENGKQLTVKRQGLYYIYAQVTFCSNREASSQAPFIASLCLKSPGRFERILLRAANTHSSAKPCGQQSIHLGGVFELQPGASVFVNVTDPSQVSHGTGFTSFGLLKL
notes: also called hCD40L-Fc (AcroBiosystems); not shown: Fc part of a bought fusion
Kd [3]: 1.15 nM | koff [3]: 0.000351 s⁻¹ | kon [3]: 304000 M⁻¹ s⁻¹

Further lines, results first:

Kd [1]: 8.42 nM | koff [1]: 0.000156 s⁻¹ | kon [1]: 18400 M⁻¹ s⁻¹
Molecule: human IgG1 (positive control for Fcγ receptors and FcRn) (antibody)

IC50 (read off the curve) [2]: 10 nM
Molecule: anti-human CD47 blocking antibody, clone CC2C6 (BioLegend)
